Assay results published in the supplement of paper PMC10065799, “High-throughput profiling of sequence recognition by tyrosine kinases and SH2 domains using bacterial peptide display” (eLife, 2023).

What was measured:
Grb2 SH2 = Grb2 SH2 (UniProt P62993); experiment: SH2 binding enrichment of the phosphorylated peptide, bacterial display (enrichment ratio); higher = better substrate or ligand; peptides without Tyr show the background
SHP2-C SH2 = experiment: as above
c-Src SH2 = experiment: as above
Fyn = Fyn (UniProt P06241); experiment: phosphorylation enrichment, bacterial display (enrichment ratio); higher = better substrate or ligand; peptides without Tyr show the background
Jak2 = Jak2 (UniProt O60674); experiment: as above
c-Abl (mouse) = experiment: as above
EPHB1 = EPHB1 (UniProt P54762); experiment: as above
c-Src = experiment: as above
AncSZ = experiment: as above
Fer (mouse) = experiment: as above
FGFR3 = FGFR3 (UniProt P22607); experiment: as above
EPHB2 = EPHB2 (UniProt P29323); experiment: as above
Fes = Fes (UniProt P07332); experiment: as above
FGFR1 = FGFR1 (UniProt P11362); experiment: as above
MERTK = MERTK (UniProt Q12866); experiment: as above
Hck = Hck (UniProt P08631); experiment: as above
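Wherever SH2 binding enrichment of the phosphorylated peptide, bacterial display is given: peptide library displayed on the E. coli surface as eCPX fusions, selected cells deep-sequenced, score is each peptide's frequency after selection divided by its frequency in the input.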
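Wherever phosphorylation enrichment, bacterial display is given: 11-residue human phosphosite peptides and single-mutation variants displayed on the E. coli surface, counted by deep sequencing, each peptide's frequency after selection divided by its frequency in the unselected input library; frequency after pTyr selection over input frequency; kinase dosed for 20-30% of maximal phosphorylation in three min.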

Sequence of Grb2 SH2 (P62993 whole entry, looked up): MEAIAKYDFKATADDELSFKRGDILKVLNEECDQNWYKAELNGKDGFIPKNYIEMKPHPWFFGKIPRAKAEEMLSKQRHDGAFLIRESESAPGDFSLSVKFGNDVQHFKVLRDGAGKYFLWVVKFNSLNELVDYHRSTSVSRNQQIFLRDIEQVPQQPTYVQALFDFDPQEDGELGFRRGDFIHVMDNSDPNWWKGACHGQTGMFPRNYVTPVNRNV
Sequence of FGFR1 (P11362 whole entry, looked up): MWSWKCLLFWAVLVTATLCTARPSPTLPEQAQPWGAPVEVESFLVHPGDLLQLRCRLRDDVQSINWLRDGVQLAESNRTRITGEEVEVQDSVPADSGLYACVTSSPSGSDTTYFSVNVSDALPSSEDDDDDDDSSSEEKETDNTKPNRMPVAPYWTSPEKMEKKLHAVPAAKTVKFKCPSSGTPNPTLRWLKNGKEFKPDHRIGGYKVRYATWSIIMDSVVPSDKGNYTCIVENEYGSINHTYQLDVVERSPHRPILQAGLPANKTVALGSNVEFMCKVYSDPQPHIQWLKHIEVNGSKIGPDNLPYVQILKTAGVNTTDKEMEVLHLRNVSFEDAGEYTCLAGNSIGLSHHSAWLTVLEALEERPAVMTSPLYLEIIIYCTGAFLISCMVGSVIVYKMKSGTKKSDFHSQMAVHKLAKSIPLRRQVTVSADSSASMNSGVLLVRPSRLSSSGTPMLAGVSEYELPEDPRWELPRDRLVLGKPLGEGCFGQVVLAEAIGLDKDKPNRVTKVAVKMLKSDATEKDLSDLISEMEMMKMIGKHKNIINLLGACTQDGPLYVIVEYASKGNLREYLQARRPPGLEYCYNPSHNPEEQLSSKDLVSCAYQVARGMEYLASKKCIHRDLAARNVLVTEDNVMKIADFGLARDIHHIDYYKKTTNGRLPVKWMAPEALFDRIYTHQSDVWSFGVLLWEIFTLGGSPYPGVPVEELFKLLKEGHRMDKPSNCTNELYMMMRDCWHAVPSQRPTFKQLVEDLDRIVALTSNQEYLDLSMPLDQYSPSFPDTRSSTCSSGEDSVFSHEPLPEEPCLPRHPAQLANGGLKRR
Sequence of EPHB2 (P29323 whole entry, looked up): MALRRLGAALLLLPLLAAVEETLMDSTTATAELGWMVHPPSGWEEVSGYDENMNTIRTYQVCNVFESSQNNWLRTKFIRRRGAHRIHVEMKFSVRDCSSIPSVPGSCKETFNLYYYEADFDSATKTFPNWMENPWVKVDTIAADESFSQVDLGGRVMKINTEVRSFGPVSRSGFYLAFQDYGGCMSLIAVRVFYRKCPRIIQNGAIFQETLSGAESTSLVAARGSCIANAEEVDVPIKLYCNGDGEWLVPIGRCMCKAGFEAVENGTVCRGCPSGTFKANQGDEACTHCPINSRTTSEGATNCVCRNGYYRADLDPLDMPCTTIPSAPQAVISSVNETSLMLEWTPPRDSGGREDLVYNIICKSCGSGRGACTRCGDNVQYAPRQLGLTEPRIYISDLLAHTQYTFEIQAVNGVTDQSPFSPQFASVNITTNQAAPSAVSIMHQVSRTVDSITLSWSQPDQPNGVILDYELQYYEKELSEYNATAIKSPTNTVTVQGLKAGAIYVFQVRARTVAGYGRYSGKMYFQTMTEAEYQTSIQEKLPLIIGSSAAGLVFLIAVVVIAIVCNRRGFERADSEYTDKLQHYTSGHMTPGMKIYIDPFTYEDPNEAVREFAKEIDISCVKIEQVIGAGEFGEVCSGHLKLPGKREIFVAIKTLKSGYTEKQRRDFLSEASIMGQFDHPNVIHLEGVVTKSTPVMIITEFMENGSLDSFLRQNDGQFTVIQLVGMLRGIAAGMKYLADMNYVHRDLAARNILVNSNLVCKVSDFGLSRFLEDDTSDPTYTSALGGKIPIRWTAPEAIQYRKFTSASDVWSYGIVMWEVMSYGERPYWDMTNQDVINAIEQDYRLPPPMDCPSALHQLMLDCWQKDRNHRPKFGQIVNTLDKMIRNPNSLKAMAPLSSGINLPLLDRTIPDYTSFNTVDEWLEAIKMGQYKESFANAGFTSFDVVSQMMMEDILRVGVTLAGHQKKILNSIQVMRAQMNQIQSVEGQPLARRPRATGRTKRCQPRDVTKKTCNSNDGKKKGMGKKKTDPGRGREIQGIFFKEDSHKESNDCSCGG
Sequence of Hck (P08631 whole entry, looked up, the tested form may be a part): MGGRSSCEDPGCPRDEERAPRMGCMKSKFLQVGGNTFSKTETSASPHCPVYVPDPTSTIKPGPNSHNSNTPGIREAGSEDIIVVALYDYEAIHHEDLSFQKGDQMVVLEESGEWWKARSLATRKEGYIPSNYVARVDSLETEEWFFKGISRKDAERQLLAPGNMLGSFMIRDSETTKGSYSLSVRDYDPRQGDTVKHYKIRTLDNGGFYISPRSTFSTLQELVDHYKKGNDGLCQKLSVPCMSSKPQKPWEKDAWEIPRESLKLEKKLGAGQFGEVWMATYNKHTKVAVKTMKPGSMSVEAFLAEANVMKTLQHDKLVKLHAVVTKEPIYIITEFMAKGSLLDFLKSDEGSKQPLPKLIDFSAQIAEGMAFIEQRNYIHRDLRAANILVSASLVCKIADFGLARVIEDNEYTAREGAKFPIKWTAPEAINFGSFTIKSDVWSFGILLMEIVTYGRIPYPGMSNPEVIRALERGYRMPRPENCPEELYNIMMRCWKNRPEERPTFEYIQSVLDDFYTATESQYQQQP
Sequence of Fes (P07332 whole entry, looked up): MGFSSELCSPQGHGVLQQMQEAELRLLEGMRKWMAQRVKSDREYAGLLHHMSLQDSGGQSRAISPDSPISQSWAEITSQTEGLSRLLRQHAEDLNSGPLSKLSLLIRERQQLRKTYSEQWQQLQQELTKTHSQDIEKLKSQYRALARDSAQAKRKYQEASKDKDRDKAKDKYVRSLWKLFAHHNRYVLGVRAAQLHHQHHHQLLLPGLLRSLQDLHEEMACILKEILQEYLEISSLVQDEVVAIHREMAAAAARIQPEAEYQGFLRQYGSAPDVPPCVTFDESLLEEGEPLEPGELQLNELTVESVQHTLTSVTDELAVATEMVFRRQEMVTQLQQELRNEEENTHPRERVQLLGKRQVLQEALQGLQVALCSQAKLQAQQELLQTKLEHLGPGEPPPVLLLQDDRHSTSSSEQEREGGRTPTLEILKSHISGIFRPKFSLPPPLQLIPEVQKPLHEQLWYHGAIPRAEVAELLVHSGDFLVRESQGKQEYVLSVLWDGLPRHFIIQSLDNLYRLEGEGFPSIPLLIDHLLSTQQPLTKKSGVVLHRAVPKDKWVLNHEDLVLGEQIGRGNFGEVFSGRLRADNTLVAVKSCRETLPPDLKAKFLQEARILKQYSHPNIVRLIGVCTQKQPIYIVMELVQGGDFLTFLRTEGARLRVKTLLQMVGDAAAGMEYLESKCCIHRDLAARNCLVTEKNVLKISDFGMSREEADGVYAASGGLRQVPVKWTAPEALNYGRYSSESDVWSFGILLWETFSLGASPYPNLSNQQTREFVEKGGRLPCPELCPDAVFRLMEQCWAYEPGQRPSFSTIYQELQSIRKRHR
Sequence of Jak2 (O60674 whole entry, looked up): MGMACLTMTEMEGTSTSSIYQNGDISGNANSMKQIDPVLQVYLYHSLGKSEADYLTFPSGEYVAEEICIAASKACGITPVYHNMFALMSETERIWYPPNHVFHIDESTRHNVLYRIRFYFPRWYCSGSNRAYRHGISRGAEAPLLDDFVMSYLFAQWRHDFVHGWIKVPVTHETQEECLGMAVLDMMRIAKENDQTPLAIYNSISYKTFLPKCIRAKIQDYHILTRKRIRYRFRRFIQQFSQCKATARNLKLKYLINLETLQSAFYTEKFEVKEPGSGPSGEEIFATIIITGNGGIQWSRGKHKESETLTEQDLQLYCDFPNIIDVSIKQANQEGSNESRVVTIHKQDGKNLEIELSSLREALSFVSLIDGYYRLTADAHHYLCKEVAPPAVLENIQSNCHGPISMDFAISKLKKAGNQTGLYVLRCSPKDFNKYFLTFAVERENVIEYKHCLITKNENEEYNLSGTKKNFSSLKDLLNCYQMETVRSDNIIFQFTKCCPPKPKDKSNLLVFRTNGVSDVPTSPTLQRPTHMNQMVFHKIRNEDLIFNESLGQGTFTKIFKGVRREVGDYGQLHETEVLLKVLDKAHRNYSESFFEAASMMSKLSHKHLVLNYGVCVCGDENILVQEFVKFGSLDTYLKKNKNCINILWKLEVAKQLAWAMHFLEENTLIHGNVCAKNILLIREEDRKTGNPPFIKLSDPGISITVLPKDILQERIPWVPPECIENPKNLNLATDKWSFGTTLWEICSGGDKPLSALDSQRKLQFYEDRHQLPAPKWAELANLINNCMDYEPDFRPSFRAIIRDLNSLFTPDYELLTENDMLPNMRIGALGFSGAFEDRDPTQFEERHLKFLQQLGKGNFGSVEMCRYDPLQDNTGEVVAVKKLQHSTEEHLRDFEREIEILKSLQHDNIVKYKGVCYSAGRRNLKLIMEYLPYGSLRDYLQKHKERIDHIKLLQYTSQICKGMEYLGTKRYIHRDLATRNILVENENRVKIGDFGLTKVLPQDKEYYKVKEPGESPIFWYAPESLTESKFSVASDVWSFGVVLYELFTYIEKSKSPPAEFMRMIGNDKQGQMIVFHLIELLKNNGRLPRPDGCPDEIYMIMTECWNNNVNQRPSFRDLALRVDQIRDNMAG

| Sequence | SH2 binding enrichment (Grb2 SH2) | SH2 binding enrichment (SHP2-C SH2) | SH2 binding enrichment (c-Src SH2) | phosphorylation enrichment (Fyn) | phosphorylation enrichment (Jak2) | phosphorylation enrichment (c-Abl (mouse)) | phosphorylation enrichment (EPHB1) | phosphorylation enrichment (c-Src) | phosphorylation enrichment (AncSZ) | phosphorylation enrichment (Fer (mouse)) | phosphorylation enrichment (FGFR3) | phosphorylation enrichment (EPHB2) | phosphorylation enrichment (Fes) | phosphorylation enrichment (FGFR1) | phosphorylation enrichment (MERTK) | phosphorylation enrichment (Hck) |
| --- | --- | --- | --- | --- | --- | --- | --- | --- | --- | --- | --- | --- | --- | --- | --- | --- |
| CTIIHYNYMCN [TP53_Y234_T231I] | 1.76 | 1.76 | 2.11 | 0.588 | 0.829 | 0.534 | 0.723 | 0.452 | 0.963 | 0.633 | 0.798 | 0.694 | 1 | 0.583 | 0.419 | 0.521 |
| CTLNVYRQLHN [LUZP1_Y1036_S1034N] | 0.796 | 0.708 | 0.382 | 0.459 | 1 | 0.739 | 0.753 | 0.473 | 1.05 | 0.516 | 0.749 | 0.585 | 1.28 | 0.558 | 0.475 | 0.551 |
| CTTIHNNYMCN [TP53_Y234_Y234N] | 0.987 | 1.27 | 0.914 | 0.432 | 0.61 | 0.63 | 0.44 | 0.385 | 0.712 | 0.383 | 0.452 | 0.456 | 0.725 | 0.423 | 0.379 | 0.423 |
| CTTIHYNCMCN [TP53_Y234_Y236C] | 0.775 | 0.823 | 0.508 | 0.45 | 0.885 | 0.689 | 0.591 | 0.468 | 1.06 | 0.541 | 0.715 | 0.712 | 1.08 | 0.417 | 0.426 | 0.475 |
| CTTIHYNFMFN [TP53_Y234_C238F_YF] | 0.975 | 1.08 | 0.756 | 0.52 | 1.34 | 1.04 | 0.786 | 0.586 | 1.27 | 0.789 | 0.945 | 0.684 | 1.61 | 0.676 | 0.595 | 0.569 |
| CTTIHYNHMCN [TP53_Y234_Y236H] | 1.22 | 1.24 | 1.7 | 0.455 | 0.688 | 0.574 | 0.445 | 0.422 | 0.692 | 0.369 | 0.506 | 0.456 | 0.796 | 0.432 | 0.476 | 0.414 |
| CTTIHYNSMCN [TP53_Y234_Y236S] | 1.01 | 1.06 | 2.42 | 0.464 | 0.603 | 0.544 | 0.514 | 0.396 | 0.849 | 0.467 | 0.627 | 0.645 | 0.905 | 0.486 | 0.42 | 0.561 |
| CTTIHYNYMCK [TP53_Y234_N239K] | 1.45 | 1.64 | 3.07 | 0.482 | 0.674 | 0.551 | 0.54 | 0.371 | 0.736 | 0.5 | 0.61 | 0.562 | 0.826 | 0.547 | 0.456 | 0.473 |
| CTTIHYNYMCT [TP53_Y234_N239T] | 1.42 | 2.78 | 4.38 | 0.569 | 0.657 | 0.656 | 2.71 | 0.5 | 0.936 | 0.915 | 0.817 | 1.02 | 1 | 0.899 | 0.784 | 0.545 |
| CTTIHYNYMGN [TP53_Y234_C238G] | 0.926 | 0.842 | 1.3 | 0.402 | 0.865 | 0.657 | 0.85 | 0.425 | 0.915 | 0.763 | 0.653 | 0.62 | 0.987 | 0.532 | 0.633 | 0.462 |
| CTTILYNYMCN [TP53_Y234_H233L] | 1.78 | 1.9 | 2.4 | 0.745 | 1.16 | 0.615 | 0.958 | 1.24 | 1.18 | 1.2 | 0.894 | 0.766 | 1.06 | 0.94 | 2.36 | 1.14 |
| CVGGFYGGCNE [CTSC_Y352_Y347C] | 1.01 | 0.748 | 0.908 | 0.678 | 0.636 | 0.471 | 0.548 | 1.88 | 0.81 | 0.566 | 0.653 | 0.625 | 0.854 | 0.439 | 0.585 | 0.838 |
| DAASNYARGHY [TUBA3E_Y103] | 0.784 | 0.743 | 0.524 | 0.353 | 0.428 | 0.533 | 0.383 | 0.43 | 0.522 | 0.342 | 0.463 | 0.524 | 0.519 | 0.495 | 0.44 | 0.475 |
| DDEESYENVPR [FCRL3_Y722_N721S] | 0.935 | 0.77 | 0.672 | 0.516 | 1.06 | 0.687 | 0.466 | 0.462 | 1.12 | 0.427 | 0.666 | 0.548 | 0.969 | 0.475 | 0.47 | 0.481 |
| DDSSAYRSVDE [BCKDHA_Y345] | 0.794 | 0.765 | 0.886 | 0.547 | 1.12 | 1.01 | 0.671 | 0.568 | 1.16 | 0.721 | 0.707 | 0.528 | 1.29 | 0.569 | 0.485 | 0.553 |
| DEDFLCREELA [POR_Y575_Y575C_YF] | 0.8 | 0.734 | 0.543 | 0.528 | 1.33 | 0.821 | 0.701 | 0.613 | 1.25 | 0.486 | 0.846 | 0.657 | 1.38 | 0.572 | 0.501 | 0.629 |
| DEEDFYQGSME [ASCC1_Y36] | 0.572 | 0.575 | 0.427 | 0.598 | 1.54 | 0.889 | 0.761 | 0.603 | 1.46 | 0.798 | 0.953 | 0.595 | 1.54 | 0.549 | 0.524 | 0.654 |

| Sequence | SH2 binding enrichment (Grb2 SH2) | SH2 binding enrichment (SHP2-C SH2) | SH2 binding enrichment (c-Src SH2) | phosphorylation enrichment (Fyn) | phosphorylation enrichment (Jak2) | phosphorylation enrichment (c-Abl (mouse)) | phosphorylation enrichment (EPHB1) | phosphorylation enrichment (c-Src) | phosphorylation enrichment (AncSZ) | phosphorylation enrichment (Fer (mouse)) | phosphorylation enrichment (FGFR3) | phosphorylation enrichment (EPHB2) | phosphorylation enrichment (Fes) | phosphorylation enrichment (FGFR1) | phosphorylation enrichment (MERTK) | phosphorylation enrichment (Hck) |
| --- | --- | --- | --- | --- | --- | --- | --- | --- | --- | --- | --- | --- | --- | --- | --- | --- |
| DENWFYTRAAS [RPS19_Y54] | 0.821 | 0.816 | 0.661 | 0.454 | 1.11 | 1.34 | 0.547 | 0.418 | 1.13 | 0.45 | 0.673 | 0.517 | 1.11 | 0.402 | 0.401 | 0.382 |
| DENWFYTRPAS [RPS19_Y54_A57P] | 0.78 | 0.672 | 1.01 | 0.497 | 1.43 | 0.673 | 0.59 | 0.489 | 1.46 | 0.676 | 0.734 | 0.55 | 1.07 | 0.496 | 0.477 | 0.565 |
| DESEDCRDTVV [CNNM3_Y456_Y456C] | 0.97 | 0.887 | 0.672 | 0.528 | 1.03 | 0.777 | 0.788 | 0.474 | 1.22 | 0.515 | 0.723 | 0.597 | 1.11 | 0.589 | 0.518 | 0.587 |
| DFLSSYSAVNE [OAT_Y85_Q90E] | 0.864 | 0.902 | 2.35 | 0.531 | 0.745 | 0.566 | 0.504 | 0.468 | 0.896 | 0.525 | 0.685 | 0.596 | 0.953 | 0.55 | 0.49 | 0.554 |
| DFPGNYSGFDD [POLR1C_Y33_YF] | 0.839 | 0.815 | 0.806 | 0.55 | 0.676 | 0.588 | 0.927 | 0.548 | 0.858 | 0.408 | 0.637 | 0.531 | 0.899 | 0.456 | 0.376 | 0.481 |
| DGDTRYSTFSE [TKTL1_Y318] | 0.978 | 1.82 | 2.62 | 0.467 | 0.849 | 0.764 | 0.609 | 0.5 | 0.837 | 0.481 | 0.669 | 0.487 | 0.879 | 0.41 | 0.451 | 0.559 |
| DHKRQYELLKL [KIF4B_Y684_R680H] | 0.79 | 0.76 | 2.31 | 0.395 | 0.514 | 0.511 | 0.448 | 0.411 | 0.472 | 0.505 | 0.52 | 0.429 | 0.697 | 0.342 | 0.367 | 0.415 |
| DHTVNYVLKCR [PLEKHG4_Y1068_R1064H] | 0.67 | 0.63 | 0.346 | 0.479 | 1.09 | 0.859 | 0.699 | 0.409 | 1.18 | 0.512 | 0.855 | 0.677 | 1.38 | 0.602 | 0.419 | 0.532 |
| DKMEAYNIDET [TEKT4_Y210] | 0.82 | 0.685 | 0.528 | 0.568 | 1.04 | 0.755 | 0.604 | 0.492 | 1.32 | 0.584 | 0.83 | 0.618 | 1.29 | 0.56 | 0.459 | 0.583 |
| DLDTDYGSGYP [RNASEH2A_Y206] | 0.816 | 0.565 | 0.439 | 0.852 | 1.14 | 1.21 | 0.691 | 0.652 | 1.36 | 0.682 | 0.879 | 0.648 | 1.47 | 0.689 | 0.554 | 0.589 |
| DLRTGYSVPYG [TGM1_Y370_Y365D] | 0.906 | 0.717 | 9.61 | 0.392 | 0.663 | 0.568 | 0.409 | 0.384 | 0.721 | 0.456 | 0.592 | 0.411 | 0.665 | 0.553 | 0.399 | 0.459 |
| DMLTLYVNTAA [SMCHD1_Y403_Q400L] | 5.64 | 0.993 | 0.646 | 0.457 | 1.13 | 0.766 | 0.758 | 0.524 | 1.4 | 0.535 | 0.855 | 0.775 | 1.36 | 0.569 | 0.444 | 0.557 |
| DNAFQYMLTDR [MYH7_Y164_YF] | 0.923 | 0.767 | 0.685 | 0.47 | 0.738 | 0.47 | 0.44 | 0.543 | 0.955 | 0.472 | 0.584 | 0.496 | 1.02 | 0.461 | 0.374 | 0.494 |
| DNAYQYMLTDR [MYH7_Y164] | 0.7 | 0.664 | 1.34 | 0.658 | 0.85 | 0.526 | 0.61 | 0.767 | 1.23 | 2.74 | 2.3 | 0.461 | 0.859 | 3.6 | 1.27 | 0.608 |
| DPGVSYCTREE [PDHA1_Y301_R302C] | 1.08 | 0.968 | 0.581 | 0.606 | 1.1 | 0.714 | 0.643 | 0.449 | 1.12 | 0.481 | 1.12 | 0.749 | 1.12 | 0.576 | 0.451 | 0.688 |
| DPNQQYYIAMD [TBX15_Y159_H156N] | 0.881 | 0.628 | 1.44 | 0.566 | 0.959 | 0.571 | 0.875 | 0.812 | 1.12 | 0.487 | 2.95 | 0.719 | 0.992 | 3.98 | 1.65 | 0.613 |
